{"source": "the supplement of paper PMC10126150", "note": "± gives the standard deviation of the averaged measurements.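 Also: ATP exposure 15 min at 22 °C before imaging.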"}
{"system": "ATP", "test": "switch fluorescence ratio, 500 uM ATP over buffer (Cy3 cluster intensity, sum of 5 cycles each) (fold (ratio)); higher = stronger signal-on switching upon ATP binding; sequences stand for … in TCGTCGGCAGCGTCAGATGTGTATAAGAGACAGTTTTTTTTTTTTTTTTTTTTTTTTT…TC", "conditions": "aptamer strand: ATP DNA aptamer (quencher-CACCTGGGGGAGTATTGCGGAGGAAGG + anchor), 100 nM annealed; ATP concentration: 500 uM", "procedure,_shortened": "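Imaging in selection buffer was followed by imaging after 15 min with 500 uM ATP at 22 °C, for Cy3-labelled switching-strand clusters annealed to 100 nM quencher-labelled ATP aptamer on a modified Illumina MiSeq flow-cell. Five of these buffer/ATP cycles ran, separated by NaOH stripping and re-annealing. The fluorescence ratio per cluster is summed target-cycle over summed buffer-cycle Cy3 intensity, averaged per switch-domain sequence; clusters outside 100-1000 RFU were removed.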"}
{"sequence": "TGGGTTTCT", "switch fluorescence ratio": "1 ± 0.041"}
{"sequence": "TGGGTTTCTG", "switch fluorescence ratio": "1.02 ± 0.021"}
{"sequence": "TGGGTTTCTT", "switch fluorescence ratio": "1.016 ± 0.0055"}
{"sequence": "TGGGTTTGAG", "switch fluorescence ratio": "0.99 ± 0.035"}
{"sequence": "TGGGTTTGAT", "switch fluorescence ratio": "1.01 ± 0.041"}
{"sequence": "TGGGTTTGTG", "switch fluorescence ratio": "0.996 ± 0.033"}
{"sequence": "TGGTAAAATT", "switch fluorescence ratio": "1.031 ± 0.01"}
{"sequence": "TGGTAAAGCA", "switch fluorescence ratio": "1.06 ± 0.11"}
{"sequence": "TGGTAAAGGT", "switch fluorescence ratio": "0.985 ± 0.014"}
{"sequence": "TGGTAATATT", "switch fluorescence ratio": "0.962 ± 0.015"}
{"sequence": "TGGTAGTTCG", "switch fluorescence ratio": "1.01 ± 0.046"}
{"sequence": "TGGTATAGGT", "switch fluorescence ratio": "0.994 ± 0.038"}
{"sequence": "TGGTATGGGG", "switch fluorescence ratio": "1.03 ± 0.087"}
{"sequence": "TGGTATGGGT", "switch fluorescence ratio": "1.23 ± 0.33"}
{"sequence": "TGGTATGTAG", "switch fluorescence ratio": "1.02 ± 0.031"}
{"sequence": "TGGTCCCCGG", "switch fluorescence ratio": "0.997 ± 0.025"}
{"sequence": "TGGTCCGCTA", "switch fluorescence ratio": "1.755 ± 0.011"}
{"sequence": "TGGTCCTAGG", "switch fluorescence ratio": "1 ± 0.016"}
{"sequence": "TGGTCGTCCG", "switch fluorescence ratio": "0.971 ± 0.057"}
{"sequence": "TGGTCGTTCT", "switch fluorescence ratio": "1.03 ± 0.033"}
{"sequence": "TGGTCGTTTT", "switch fluorescence ratio": "1.01 ± 0.04"}
{"sequence": "TGGTCTTCTC", "switch fluorescence ratio": "1.16 ± 0.26"}
{"sequence": "TGGTCTTTGT", "switch fluorescence ratio": "1 ± 0.015"}
{"sequence": "TGGTCTTTTT", "switch fluorescence ratio": "0.995 ± 0.037"}
{"sequence": "TGGTGAGATC", "switch fluorescence ratio": "0.965 ± 0.0039"}
{"sequence": "TGGTGAGGTG", "switch fluorescence ratio": "1.02 ± 0.02"}
{"sequence": "TGGTGATTAG", "switch fluorescence ratio": "0.995 ± 0.023"}
{"sequence": "TGGTGCTTGT", "switch fluorescence ratio": "1.02 ± 0.024"}
{"sequence": "TGGTGGAGGT", "switch fluorescence ratio": "0.977 ± 0.011"}
{"sequence": "TGGTGGCCTT", "switch fluorescence ratio": "1.03 ± 0.032"}
{"sequence": "TGGTGGCGTT", "switch fluorescence ratio": "1.026 ± 0.0082"}
{"sequence": "TGGTGGGGAT", "switch fluorescence ratio": "0.985 ± 0.029"}
{"sequence": "TGGTGGGGCG", "switch fluorescence ratio": "1.11 ± 0.051"}
{"sequence": "TGGTGGGGTC", "switch fluorescence ratio": "1 ± 0.034"}
{"sequence": "TGGTGGTAGG", "switch fluorescence ratio": "0.984 ± 0.063"}
{"sequence": "TGGTGGTCAG", "switch fluorescence ratio": "0.98151 ± 0.00069"}
{"sequence": "TGGTGGTGTG", "switch fluorescence ratio": "0.983 ± 0.035"}
{"sequence": "TGGTGGTTGT", "switch fluorescence ratio": "1.02 ± 0.012"}
{"sequence": "TGGTGTACTT", "switch fluorescence ratio": "1.01 ± 0.012"}
{"sequence": "TGGTGTATAG", "switch fluorescence ratio": "1 ± 0.036"}
{"sequence": "TGGTGTCAGC", "switch fluorescence ratio": "1.02 ± 0.013"}
{"sequence": "TGGTGTGAAT", "switch fluorescence ratio": "1.01 ± 0.036"}
{"sequence": "TGGTGTGGGC", "switch fluorescence ratio": "0.985 ± 0.048"}
{"sequence": "TGGTGTTGCT", "switch fluorescence ratio": "0.9797 ± 0.0068"}
{"sequence": "TGGTGTTTGT", "switch fluorescence ratio": "0.983 ± 0.029"}
{"sequence": "TGGTGTTTTA", "switch fluorescence ratio": "0.994 ± 0.023"}
{"sequence": "TGGTTAAAGG", "switch fluorescence ratio": "0.978 ± 0.024"}
{"sequence": "TGGTTAAGGA", "switch fluorescence ratio": "1 ± 0.013"}
{"sequence": "TGGTTAAGGG", "switch fluorescence ratio": "1 ± 0.041"}
{"sequence": "TGGTTAAGGT", "switch fluorescence ratio": "0.982 ± 0.033"}
{"sequence": "TGGTTACTTC", "switch fluorescence ratio": "1.04 ± 0.028"}
{"sequence": "TGGTTAGATT", "switch fluorescence ratio": "0.996 ± 0.034"}
{"sequence": "TGGTTATACT", "switch fluorescence ratio": "0.973 ± 0.052"}
{"sequence": "TGGTTCACGT", "switch fluorescence ratio": "1 ± 0.024"}
{"sequence": "TGGTTCAGAG", "switch fluorescence ratio": "0.969 ± 0.044"}
{"sequence": "TGGTTCGGGT", "switch fluorescence ratio": "1.03 ± 0.036"}
{"sequence": "TGGTTGAATT", "switch fluorescence ratio": "0.992 ± 0.05"}
{"sequence": "TGGTTGGACG", "switch fluorescence ratio": "0.997 ± 0.017"}
{"sequence": "TGGTTGGGCC", "switch fluorescence ratio": "0.985 ± 0.06"}
{"sequence": "TGGTTGGGTG", "switch fluorescence ratio": "1.03 ± 0.059"}
{"sequence": "TGGTTGGTCA", "switch fluorescence ratio": "0.992 ± 0.01"}
{"sequence": "TGGTTGTCGC", "switch fluorescence ratio": "0.991 ± 0.065"}
{"sequence": "TGGTTTAATG", "switch fluorescence ratio": "0.997 ± 0.015"}
{"sequence": "TGGTTTACTC", "switch fluorescence ratio": "1.14 ± 0.18"}
{"sequence": "TGGTTTAGGG", "switch fluorescence ratio": "0.981 ± 0.026"}
{"sequence": "TGGTTTAGTT", "switch fluorescence ratio": "0.998 ± 0.017"}
{"sequence": "TGGTTTATTG", "switch fluorescence ratio": "1.01 ± 0.024"}
{"sequence": "TGGTTTCATT", "switch fluorescence ratio": "1.01 ± 0.017"}
{"sequence": "TGGTTTCTTT", "switch fluorescence ratio": "1.006 ± 0.0059"}
{"sequence": "TGGTTTGGCA", "switch fluorescence ratio": "0.962 ± 0.012"}
{"sequence": "TGGTTTGGGG", "switch fluorescence ratio": "0.974 ± 0.021"}
{"sequence": "TGGTTTTATA", "switch fluorescence ratio": "0.969 ± 0.02"}
{"sequence": "TGGTTTTCGC", "switch fluorescence ratio": "0.975 ± 0.023"}
{"sequence": "TGTAAAAAGT", "switch fluorescence ratio": "1 ± 0.026"}
{"sequence": "TGTAAAATTT", "switch fluorescence ratio": "0.988 ± 0.053"}
{"sequence": "TGTAACGGGA", "switch fluorescence ratio": "1.01 ± 0.018"}
{"sequence": "TGTAAGGAAA", "switch fluorescence ratio": "1.03 ± 0.013"}
{"sequence": "TGTAATTGCT", "switch fluorescence ratio": "0.999 ± 0.022"}
{"sequence": "TGTAATTGGT", "switch fluorescence ratio": "1.003 ± 0.0089"}
{"sequence": "TGTACTTTTT", "switch fluorescence ratio": "1.02 ± 0.022"}
{"sequence": "TGTAGGAGAC", "switch fluorescence ratio": "1.24 ± 0.33"}
{"sequence": "TGTAGGGATT", "switch fluorescence ratio": "1.01 ± 0.054"}
{"sequence": "TGTAGTATGT", "switch fluorescence ratio": "1 ± 0.012"}
{"sequence": "TGTAGTATTT", "switch fluorescence ratio": "1 ± 0.013"}
{"sequence": "TGTAGTCTTT", "switch fluorescence ratio": "1.03 ± 0.052"}
